In patent US20240343803A1 (SHANDONG SIMCERE BIOPHARMACEUTICAL, published 2024):

Legend:
[1] = target: T1, human PVRIG on FlpinCHO-PVRIG cells (human, UniProt Q6DKI7 41-326); test: FACS, FlpinCHO-PVRIG cells
T1 construct: whole, on cells
T1 sequence (looked up): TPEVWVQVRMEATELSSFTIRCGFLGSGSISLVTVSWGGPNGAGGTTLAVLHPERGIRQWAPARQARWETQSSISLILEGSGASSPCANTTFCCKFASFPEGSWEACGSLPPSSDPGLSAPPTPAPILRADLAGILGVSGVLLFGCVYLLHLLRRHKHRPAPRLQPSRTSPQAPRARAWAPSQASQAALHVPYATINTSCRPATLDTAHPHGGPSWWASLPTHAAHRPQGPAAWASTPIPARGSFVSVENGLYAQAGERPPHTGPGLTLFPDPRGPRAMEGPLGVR
Protocol: The Ham's F12 (Gibico, 21127-022) complete medium containing 10% FBS was then added to terminate the digestion and acquire cell suspension. After counting with a cell counter (Beckman Coulter, Vi-CELL), an appropriate amount of cell suspension was centrifuged at 350×g to remove the supernatant, washed twice with PBS, stained with Zombie violet (Biolegend, 423114) and incubated at room temperature for 20 minutes. After incubation, the cells were added with staining buffer (2% FBS+PBS) to stop staining, centrifuged at 350×g to remove the supernatant, washed twice and resuspended with staining buffer to a density of 2×10⁶ cells/mL. The cells were plated into a 96-well plate (50 μL of cell suspension per well) for further use. The antibodies were diluted from the highest concentration of 46 nM (two-fold concentration) with staining buffer by 3.3-fold serial dilution. The diluted antibodies were added to the well containing 50 μL of cell suspension. The plate was placed on a microplate shaker at 400 rpm for 1 minute to fully mix the antibodies and cells, and then incubated at 4° C. for 30 minutes. After the incubation, the cells were washed twice with staining buffer (200 μL per well) and centrifuged at 350×g for 5 minutes to discard the supernatant. The PE goat anti-human IgG Fc antibody (ebioscience, 12-4998-82) was diluted 250 times with staining buffer, added into the washed wells (100 μL per well), mixed well, and stained at 4° C. for 30 minutes. After staining, the cells were washed twice with staining buffer, finally resuspended with 200 μL staining buffer and analyzed by flow cytometry (BD, Canto II). The stronger the signal, the stronger the ability of the antibodies binds to PVRIG. An antibody binding curve was drawn with concentration of antibodies as the abscissa and the corresponding Mean Fluorescence Intensity (MFI) as the ordinate. The AUC value of the curve was calculated by using a Four Parameter Logistic Fit (GraphPadPrism9). The stronger the AUC value, the stronger the ability of the antibodies binds to FlpinCHO-PVRIG and FlpinCHO-cyno PVRIG. […] The binding activity of the antibodies was normalized to the positive control COM701-hIgG1 and SRF813-hIgG1.

[2] = target: T2, human PVRIG-his (AcroBiosystems, Cat NO. PVG-H52H4) (human, UniProt Q6DKI7 41-171, limits assumed); test: ELISA, antigen coated
T2 construct: also called human PVRIG protein
T2 sequence (looked up): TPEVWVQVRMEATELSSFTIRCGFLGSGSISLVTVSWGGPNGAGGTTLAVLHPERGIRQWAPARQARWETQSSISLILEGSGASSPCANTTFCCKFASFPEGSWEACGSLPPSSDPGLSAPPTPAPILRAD

[3] = target: T3, cynomolgus monkey PVRIG (Novoprotein, Cat NO. C09B) (cynomolgus monkey, UniProt A0A2K5WVV8 41-171); test: ELISA, antigen coated
T3 construct: also called cynomolgus monkey PVRIG protein
T3 sequence: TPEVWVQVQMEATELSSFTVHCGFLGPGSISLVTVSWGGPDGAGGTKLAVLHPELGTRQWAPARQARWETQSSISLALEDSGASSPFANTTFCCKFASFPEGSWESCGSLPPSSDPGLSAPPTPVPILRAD

[4] = target: T2, human PVRIG-his (AcroBiosystems, Cat …); test: competition ELISA, PVRIG-His coated, competitor human PVRL2-mFc; set-up: AUC: unit not given here

B1: PVRIG-A50-H1 (Fc fusion)
chain: EVQLVESGGGLVQPGGSLRLSCAASGFTFSYYDMSWVRQAPGKGLEWVSTINSNGGRTSYVDSVKGRFTISRDNSKNTLYLQMNSLRAEDTAVYYCVEGDPHNFGLENLSLRDFGSWGQGTMVTVSS
notes: humanized variant of PVRIG-A50; also called A50.VH1; not shown: constant part not restated for the humanized forms; parents are VHH-hinge-CH2-CH3 of human IgG1; detected by anti-human
AUC % to COM701-hIgG1 [1]: 74.4% | AUC % to SRF813-hIgG1 [1]: 132% | AUC % to parental Ab [1]: 101% | % relative activity parental antibody/tested antibody [2]: 105% | EC50 [2]: 0.0871 nM | % relative activity parental antibody/tested antibody [3]: 95.1% | EC50 [3]: 0.13 nM | % relative activity (AUC) parental antibody/test antibody [4]: 82.6% | % relative activity (IC50) parental antibody/test antibody [4]: 77.5% | AUC [4]: 2.42 | IC50 [4]: 1 nM

B2: PVRIG-A50-H1d (Fc fusion)
chain: EVQLVESGGGLVQPGGSLRLSCAASGFTFSYYDMSWVRQAPGKGLEWVSTINSNGGRTSYVDSVKGRFTISRDNSKNTLYLQMNSLRAEDTAVYYCVEGDPHNFGLESLSLRDFGSWGQGTMVTVSS
notes: humanized variant of PVRIG-A50; also called A50.VH1d; not shown: constant part not restated for the humanized forms; parents are VHH-hinge-CH2-CH3 of human IgG1; detected by anti-human
AUC % to COM701-hIgG1 [1]: 63.1% | AUC % to SRF813-hIgG1 [1]: 112% | AUC % to parental Ab [1]: 85.9% | % relative activity parental antibody/tested antibody [2]: 118% | EC50 [2]: 0.0774 nM | % relative activity parental antibody/tested antibody [3]: 111% | EC50 [3]: 0.111 nM | % relative activity (AUC) parental antibody/test antibody [4]: 83.2% | % relative activity (IC50) parental antibody/test antibody [4]: 75% | AUC [4]: 2.4 | IC50 [4]: 1.03 nM

B3: PVRIG-A118-H4 (Fc fusion)
chain: EVQLVESGGGLVQPGGSLRLSCAASETYFDLYVMGWYRQAPGKDRELVATITYTGSIKYVDSVKGRFTISRGDAKNSLSLQMNSLRAEDTAVYYCNADPSGLGRKVYWGQGTMVTVSS
notes: humanized variant of PVRIG-A118; also called A118.VH4; not shown: constant part not restated for the humanized forms; parents are VHH-hinge-CH2-CH3 of human IgG1; detected by anti-human
AUC % to COM701-hIgG1 [1]: 132% | AUC % to SRF813-hIgG1 [1]: 185% | AUC % to parental Ab [1]: 97% | % relative activity parental antibody/tested antibody [2]: 95.8% | EC50 [2]: 0.0522 nM | % relative activity parental antibody/tested antibody [3]: 37.1% | EC50 [3]: 0.0729 nM | % relative activity (AUC) parental antibody/test antibody [4]: 112% | % relative activity (IC50) parental antibody/test antibody [4]: 120% | AUC [4]: 1.42 | IC50 [4]: 0.462 nM

B4: PVRIG-A118-H3 (Fc fusion)
chain: EVQLVESGGGLVQPGGSLRLSCAASETYFDLYVMGWYRQAPGKDRELVATITYTGSIKYVDSVKGRFTISRGDAKNSLYLQMNSLRAEDTAVYYCNADPSGLGRKVYWGQGTMVTVSS
notes: humanized variant of PVRIG-A118; also called A118.VH3; not shown: constant part not restated for the humanized forms; parents are VHH-hinge-CH2-CH3 of human IgG1; detected by anti-human
AUC % to COM701-hIgG1 [1]: 129% | AUC % to SRF813-hIgG1 [1]: 180% | AUC % to parental Ab [1]: 94.5% | % relative activity parental antibody/tested antibody [2]: 100% | EC50 [2]: 0.05 nM | % relative activity parental antibody/tested antibody [3]: 34% | EC50 [3]: 0.0794 nM | % relative activity (AUC) parental antibody/test antibody [4]: 106% | % relative activity (IC50) parental antibody/test antibody [4]: 144% | AUC [4]: 1.49 | IC50 [4]: 0.386 nM

B5: PVRIG-A118-H5 (Fc fusion)
chain: EVQLVESGGGLVQPGGSLRLSCAASETYFDLYVMGWYRQAPGKDRELVATITYTGSIKYVDSVKGRFTISRGDAKNSVYLQMNSLRAEDTAVYYCNADPSGLGRKVYWGQGTMVTVSS
notes: humanized variant of PVRIG-A118; also called A118.VH5; not shown: constant part not restated for the humanized forms; parents are VHH-hinge-CH2-CH3 of human IgG1; detected by anti-human
AUC % to COM701-hIgG1 [1]: 128% | AUC % to SRF813-hIgG1 [1]: 179% | AUC % to parental Ab [1]: 93.9% | % relative activity parental antibody/tested antibody [2]: 104% | EC50 [2]: 0.0481 nM | % relative activity parental antibody/tested antibody [3]: 40.2% | EC50 [3]: 0.0673 nM | % relative activity (AUC) parental antibody/test antibody [4]: 114% | % relative activity (IC50) parental antibody/test antibody [4]: 146% | AUC [4]: 1.39 | IC50 [4]: 0.381 nM

B6: PVRIG-A118-H1 (Fc fusion)
chain: EVQLVESGGGLVQPGGSLRLSCAASETYFDLYVMGWYRQAPGKDRELVATITYTGSIYYVDSVKGRFTISRDNAKNSLYLQMNSLRAEDTAVYYCNADPSGLGRKVYWGQGTMVTVSS
notes: humanized variant of PVRIG-A118; also called A118.VH1; not shown: constant part not restated for the humanized forms; parents are VHH-hinge-CH2-CH3 of human IgG1; detected by anti-human
AUC % to COM701-hIgG1 [1]: 127% | AUC % to SRF813-hIgG1 [1]: 178% | AUC % to parental Ab [1]: 93.2% | % relative activity parental antibody/tested antibody [2]: 110% | EC50 [2]: 0.0456 nM | % relative activity parental antibody/tested antibody [3]: 4.62% | EC50 [3]: 0.585 nM | % relative activity (AUC) parental antibody/test antibody [4]: 121% | % relative activity (IC50) parental antibody/test antibody [4]: 157% | AUC [4]: 1.31 | IC50 [4]: 0.355 nM

B7: PVRIG-A118-H6 (Fc fusion)
chain: EVQLVESGGGLVQPGGSLRLSCAASETYFDLYVMGWYRQAPGKDRELVATITYTGSIKIVDSVKGRFTISRGDAKNSLYLQMNSLRAEDTAVYYCNADPSGLGRKVYWGQGTMVTVSS
notes: humanized variant of PVRIG-A118; also called A118.VH6; not shown: constant part not restated for the humanized forms; parents are VHH-hinge-CH2-CH3 of human IgG1; detected by anti-human
AUC % to COM701-hIgG1 [1]: 129% | AUC % to SRF813-hIgG1 [1]: 180% | AUC % to parental Ab [1]: 94.2% | % relative activity parental antibody/tested antibody [2]: 90.8% | EC50 [2]: 0.0551 nM | % relative activity parental antibody/tested antibody [3]: 48.4% | EC50 [3]: 0.0559 nM | % relative activity (AUC) parental antibody/test antibody [4]: 108% | % relative activity (IC50) parental antibody/test antibody [4]: 132% | AUC [4]: 1.47 | IC50 [4]: 0.422 nM

B8: PVRIG-A118-H2 (Fc fusion)
chain: EVQLVESGGGLVQPGGSLRLSCAASETYFDLYVMGWYRQAPGKDRELVATITYTGSIKYVDSVKGRFTISRDNAKNSLYLQMNSLRAEDTAVYYCNADPSGLGRKVYWGQGTMVTVSS
notes: humanized variant of PVRIG-A118; also called A118.VH2; not shown: constant part not restated for the humanized forms; parents are VHH-hinge-CH2-CH3 of human IgG1; detected by anti-human
AUC % to COM701-hIgG1 [1]: 125% | AUC % to SRF813-hIgG1 [1]: 174% | AUC % to parental Ab [1]: 91.3% | % relative activity parental antibody/tested antibody [2]: 102% | EC50 [2]: 0.0491 nM | % relative activity parental antibody/tested antibody [3]: 4.55% | EC50 [3]: 0.594 nM | % relative activity (AUC) parental antibody/test antibody [4]: 117% | % relative activity (IC50) parental antibody/test antibody [4]: 156% | AUC [4]: 1.35 | IC50 [4]: 0.357 nM

B9: PVRIG-A118-H7 (Fc fusion)
chain: EVQLVESGGGLVQPGGSLRLSCAASETYFDLYVMGWYRQAPGKDRELVATITYTGSIKYVDSVKGRFTISRGDAKNSLYLQMNSLRAEDTAVYFCNADPSGLGRKVYWGQGTMVTVSS
notes: humanized variant of PVRIG-A118; also called A118.VH7; not shown: constant part not restated for the humanized forms; parents are VHH-hinge-CH2-CH3 of human IgG1; detected by anti-human
AUC % to COM701-hIgG1 [1]: 126% | AUC % to SRF813-hIgG1 [1]: 177% | AUC % to parental Ab [1]: 92.7% | % relative activity parental antibody/tested antibody [2]: 99.9% | EC50 [2]: 0.0501 nM | % relative activity parental antibody/tested antibody [3]: 33.1% | EC50 [3]: 0.0817 nM | % relative activity (AUC) parental antibody/test antibody [4]: 114% | % relative activity (IC50) parental antibody/test antibody [4]: 129% | AUC [4]: 1.38 | IC50 [4]: 0.43 nM
